Here are results for 3 molecules from article PMC4667630, “Localized reconstruction of subunits from electron cryomicroscopy images of macromolecular complexes” (Nature Communications, 2015).

B1: bacteriophage φ6 P2 RNA-dependent RNA polymerase (enzyme)
chain: PRRAPAFPLSDIKAQMLFANNIKAQQASKRSFKEGAIETYEGLLSVDPRFLSFKNELSRYLTDHFPANVDEYGRVYGNGVRTNFFGMRHMNGFPMIPATWPLASNLKKRADADLADGPVSERDNLLFRAAVRLMFSDLEPVPLKIRKGSSTCIPYFSNDMGTKIEIAERALEKAEEAGNLMLQGKFDDAYQLHQMGGAYYVVYRAQSTDAITLDPKTGKFVSKDRMVADFEYAVTGGEQGSLFAASKDASRLKEQYGIDVPDGFFCERRRTAMGGPFALNAPIMAVAQPVRNKIYSKYAYTFHHTTRLNKEEKVKEWSLCVATDVSDHDTFWPGWLRDLICDELLNMGYAPWWVKLFETSLKLPVYVGAPAPEQGHTLLGDPSNPDLEVGLSSGQGATDLMGTLLMSITYLVMQLDHTAPHLNSRIKDMPSACRFLDSYWQGHEEIRQISKSDDAILGWTKGRALVGGHRLFEMLKEGKVNPSPYMKISYEHGGAFLGDILLYDSRREPGSAIFVGNINSMLNNQFSPEYGVQSGVRDRSKRKRPFPGLAWASMKDTYGACPIYSDVLEAIERCWWNAFGESYRAYREDMLKRDTLELSRYVASMARQAGLAELTPIDLEVLADPNKLQYKWTEADVSANIHEVLMHGVSVEKTERFLRSVMPR
notes: P2, RNA-dependent RNA polymerase of bacteriophage φ6, 75 kDa, monomeric; X-ray structure PDB 1HHS was fitted into the density; also called P2 polymerase; source: self-assembled in vitro into P124 particles
B2: bacteriophage φ6 protein P1 (natural protein, UniProt P11126 1-769, looked up)
chain: MFNLKVKDLNGSARGLTQAFAIGELKNQLSVGALQLPLQFTRTFSASMTSELLWEVGKGNIDPVMYARLFFQYAQAGGALSVDELVNQFTEYHQSTACNPEIWRKLTAYITGSSNRAIKADAVGKVPPTAILEQLRTLAPSEHELFHHITTDFVCHVLSPLGFILPDAAYVYRVGRTATYPNFYALVDCVRASDLRRMLTALSSVDSKMLQATFKAKGALAPALISQHLANAATTAFERSRGNFDANAVVSSVLTILGRLWSPSTPKELDPSARLRNTNGIDQLRSNLALFIAYQDMVKQRGRAEVIFSDEELSSTIIPWFIEAMSEVSPFKLRPINETTSYIGQTSAIDHMGQPSHVVVYEDWQFAKEITAFTPVKLANNSNQRFLDVEPGISDRMSATLAPIGNTFAVSAFVKNRTAVYEAVSQRGTVNSNGAEMTLGFPSVVERDYALDRDPMVAIAALRTGIVDESLEARASNDLKRSMFNYYAAVMHYAVAHNPEVVVSEHQGVAAEQGSLYLVWNVRTELRIPVGYNAIEGGSIRTPEPLEAIAYNKPIQPSEVLQAKVLDLANHTTSIHIWPWHEASTEFAYEDAYSVTIRNKRYTAEVKEFELLGLGQRRERVRILKPTVAHAIIQMWYSWFVEDDRTLAAARRTSRDDAEKLAIDGRRMQNAVTLLRKIEMIGTTGIGASAVHLAQSRIVDQMAGRGLIDDSSDLHVGINRHRIRIWAGLAVLQMMGLLSRSEAEALTKVLGDSNALGMVVATTDIDPSL
notes: P1, major shell protein of the bacteriophage φ6 polymerase complex; atomic structure PDB 4K7H was fitted into the capsid map; also called P1 shell; source: self-assembled in vitro into P124 particles; copies: 120

The target of data set [1] is rotavirus triple-layered particle, non-VP4 protein components (rotavirus (strain not stated)) (UniProt P12476). As to the kind of experiment: cryo-EM structure; rotavirus triple-layered particles, previously published data set (ref. 15); icosahedral reconstruction, subtraction of non-VP4 components, localized reconstruction and 3D classification of VP4 sub-particles.
Sequence of rotavirus triple-layered particle, non-VP4 protein components (rotavirus (strain not stated)) (P12476 whole entry, looked up): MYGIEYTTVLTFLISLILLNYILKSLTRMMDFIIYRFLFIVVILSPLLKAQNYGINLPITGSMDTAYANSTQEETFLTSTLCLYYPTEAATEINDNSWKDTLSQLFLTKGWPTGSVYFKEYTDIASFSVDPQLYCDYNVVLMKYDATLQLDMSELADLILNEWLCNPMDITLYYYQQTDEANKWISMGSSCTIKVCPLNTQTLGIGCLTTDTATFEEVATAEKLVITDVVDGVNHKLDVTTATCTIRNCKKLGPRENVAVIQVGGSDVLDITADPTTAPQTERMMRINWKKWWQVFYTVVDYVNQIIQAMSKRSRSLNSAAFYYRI
The target of data set [2] is B2. The data set can be described thus: cryo-EM structure; φ6 P124 particles self-assembled in vitro from purified P1, P2 and P4 (molar ratio 120:120:72, 6% PEG 4000, room temperature, 90 min), separated by rate-zonal sucrose gradient centrifugation, 20 mM Tris pH 8.0; icosahedral reconstruction and localized reconstruction with 3D classification of sub-particles at the threefold axes. Conditions: both partners purified.

Data set [3] concerns the molecule itself. The data set is described as above.

In the case of “rotavirus viral protein VP4 (from UniProt P12473 1-776) (natural protein)”, in data set [1], the occupancy of VP4 was 60 to 70%.

As for B1, the “stoichiometry N” value in data set [2] was ~12 copies of P2 per particle.

Consider B2, for which the binding result in data set [3] was “binds”.
